In the RNAGym collection of RNA variant scans (doi:10.1073/pnas.2313332121):
Variants at the floor of the assay were thinned out.

B1: TPR 5TU (parent)
chain: GGAUCUUCUCGAUCUAACAAAAAAGACAAAUCUGCCACAAAGCUUGAGAGCAUCUUCGGAUGCAGAGGCGGCAGCCUUCGGUGGCGCGAUAGCGCCAACGUUCUCAACUAUGACACGCAAAACGCGUGCUCCGUUGAAUGGAGUUUAUCAUG

Variants of: B1
Experiment: polymerase ribozyme fitness, log enrichment relative to wild type (log ratio); higher = more active; in vitro selection for triplet polymerase activity
Outline: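 Mutant libraries of each subunit of a heterodimeric triplet polymerase ribozyme were built by PCR and transcribed. Each library went through one round of in vitro selection in triplicate: annealing with biotinylated primer, partner subunit and triplets, frozen incubation at −7 °C, gel excision of extended constructs, streptavidin-bead capture and RT-PCR. Input and output libraries were Illumina-sequenced; only genotypes with ≥10 input reads and ≥1 read per output were kept. Fitness is log2(genotype enrichment/wild-type enrichment), using inverse-variance-weighted replicate averages.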

Row | Variant | polymerase ribozyme fitness (log ratio)
1 | C32A A91U C99U A120C | ≤ -4.2
2 | U31G C57G G58A A106G U111G G143U U144A | ≤ -4.2
3 | U31G G58C G140C | -4
4 | C32U G88A U145G | ≤ -4.2
5 | U33G A52G A73G G92C A107U C114U C125U U134C G141C | ≤ -4.2
6 | C32U U101A | -3.76
7 | C32U G50C C54G A73G G88A C96G | ≤ -4.2
8 | U33C A97G | -2.92
9 | C32G G94C | -4.18
10 | C32G G94A | -3.8
11 | C32A U55A C76U A89G G92U A119G | ≤ -4.2
12 | U33G A113C | -4.01
13 | C32G A49C | ≤ -4.2
14 | U31G A122U A142C | -1.56
15 | U33G G67U C85G C96G A122G G140A | ≤ -4.2
16 | C32A C38A U56A C69U C93A A122C G126U | ≤ -4.2
17 | C32U G50A A52G G58A C87G C118G | ≤ -4.2
18 | C32G C87G U104G A110G A150U | ≤ -4.2
19 | U31G U53G G70U A89U C93U C114A C123G U135C G152U | ≤ -4.2
20 | C32G G48C U53C U82G | ≤ -4.2
21 | U33A C95U A142U G143U | -4.13
22 | U33G A40G C54U U55G A98G A147U A150C | ≤ -4.2
23 | U33A C75G C76A A142G | ≤ -4.2
24 | C32U C85U A89C A138C | ≤ -4.2

Row | Variant | polymerase ribozyme fitness (log ratio)
25 | C32U C76A G83U G92C C114U C123A | ≤ -4.2
26 | U33C C69U | -0.0558
27 | C32U C125U | -2.22
28 | U33G G117A U134C | -2.88
29 | U31G C95G C105G | ≤ -4.2
30 | C32G A47C U55A U56G G67U G88A G100C C105U A137U G141U | ≤ -4.2
31 | C32A C87U | -3.44
32 | U33G A40C C116A | -3.88
33 | U33C A60U A73U A122G | -2.54
34 | U33A C75A A110U | ≤ -4.2
35 | C32G A41U A91U A107G C125G U135C | ≤ -4.2
36 | U33A G86A A142G | ≤ -4.2
37 | U33C C54U C96U A107C | ≤ -4.2
38 | U33C A41U C57U G70C G83A A119C | ≤ -4.2
39 | U33G U56A A91U C116U | -3.95
40 | U33A C85U | -3.79
41 | U33G C35G A60G A107G | ≤ -4.2
42 | C32A G74C G81C G94A A121U | -4.03
43 | U33G A47C U56A A73G G83U C99A | -4.05
44 | U31G U56A G80C C87G C99G | ≤ -4.2
45 | C32G G42C U44A G88C C95U C103G | ≤ -4.2
46 | C32G A49C C118U | ≤ -4.2
47 | C32U A40C C85G C103A | ≤ -4.2
48 | C32U A40U U56C C85U U90A C114U | -4.06

Row | Variant | polymerase ribozyme fitness (log ratio)
49 | C32A A89C C95A | ≤ -4.2
50 | C32U G81U G84A G94C | -3.46
51 | C32G C85G U90G C118A G133U G140C C149G | ≤ -4.2
52 | C32G A110G A122C G141C | -4.02
53 | U33C G50A | -3.85
54 | U33A U61A | -3.64
55 | C32U G42A A60C A66G A73G C79A G84A C93U C96G A97U C103G | ≤ -4.2
56 | C32G C96U C116G G141U | ≤ -4.2
57 | C32A C38U G128C U135A | ≤ -4.2
58 | U31G C95U | 0.463
59 | U31G C95A | 0.165
60 | C32A A47U C87U | ≤ -4.2
61 | U33G A60G | -2.79
62 | U33A G92A | ≤ -4.2
63 | U31G U56A G136A A147C | -0.143
64 | C32G G92U U127G G152U | -3.98
65 | C32G C79U C96G A142C | -3.79
66 | C32A G50A A137G | ≤ -4.2
67 | U33A U56A C75G G81U G83A U127A | ≤ -4.2
68 | U31G U53A C95U U135G | -3.6
69 | U33G G46C C95U C99A A107G G133U | ≤ -4.2
70 | C32U C36A U55A U77G A91U G140U | -3.95
71 | C32A C85U A142U | ≤ -4.2
72 | C32U C75U G88A A115C | ≤ -4.2

Row | Variant | polymerase ribozyme fitness (log ratio)
73 | C32U A49C G92U C99A A115G A147C | ≤ -4.2
74 | C32U C87U C103G | ≤ -4.2
75 | U33G G48C U53A C93U C149U | ≤ -4.2
76 | C32U G62A C76G G84U C116U G140A C149U | ≤ -4.2
77 | C32U G59C A60C C63G C93A C99U A115G | ≤ -4.2
78 | C32A C69G A98U | -1.51
79 | C32A A39U G58A C72U G80U G83A | ≤ -4.2
80 | C32A A41C C51U G58A C69U C93U C108U | ≤ -4.2
81 | C32U U55G U61C G84U G100C | ≤ -4.2
82 | C32U A49C U55A G81A C85U U90A A106U A121U C125A | ≤ -4.2
83 | U33G G42A G58C A91G G100A | ≤ -4.2
84 | U31G U45A A49C G84A A113G A142C | ≤ -4.2
85 | C32U A40G C105A | -3.89
86 | U31G A41C C75U C85G G88C A137U | ≤ -4.2
87 | C32A C35U C69A C75U A150G | ≤ -4.2
88 | C32A C87A C93U | ≤ -4.2
89 | U31G U53A A89C C93G G100A A137C A147U G152C | ≤ -4.2
90 | C32G C54A C75U U77A C85U A106G U135C | ≤ -4.2
91 | C32U G83U G126A | -4.19
92 | U33G G50A C63G G94A C95G C116U | ≤ -4.2
93 | U33A G58A C96A G152U | -3.79
94 | U31G C93G G133U U134C | ≤ -4.2
95 | C32G G48U G68A U134A U145C | ≤ -4.2
96 | U31G C87U U127A | -3.89

Row | Variant | polymerase ribozyme fitness (log ratio)
97 | U33A G48A U78C G84A C105U | ≤ -4.2
98 | U33C U56C G59C C79A C95U C123A G140U | ≤ -4.2
99 | U33G G42C G88U G124U C125G | -3.86
100 | C32G A37C G140C | ≤ -4.2
101 | C32G G70C | ≤ -4.2
102 | U33G C116U | -2.7
103 | C32U C54G G68U C75A | -3.88
104 | C32G A40U C57U U135G | ≤ -4.2
105 | U33G U53A | -3.68
106 | C32G A52C U61A G62C C63A C75U C93U | -4.14
107 | C32A G84A | -3.57
108 | C32U A89U | -2.63
109 | U31G G50A C87A U135A | ≤ -4.2
110 | C32U C38U C93G A122G G126C U145A | ≤ -4.2
111 | U33C C54A G83C C108G U146A C149A | ≤ -4.2
112 | U31G A40C G42A G50A C54U C72U G94U | ≤ -4.2
113 | C32A U82C | ≤ -4.2
114 | C32G A52U C99U A106G G124U C131A | ≤ -4.2
115 | C32G A37G C95U | -3.7
116 | C32G A37C C85G | ≤ -4.2
117 | C32G G65C A73G C76U A106G | ≤ -4.2
118 | U33G A47C A52C U53A A73U C87G | ≤ -4.2
119 | C32U G71C C103G A113G A121G U134C | ≤ -4.2
120 | U33A G46A G59A C103A A115G | -4.12

Row | Variant | polymerase ribozyme fitness (log ratio)
121 | C32U C103U | -2.66
122 | U33G U44A A142G | ≤ -4.2
123 | C32U G65C U77A C87G U90C C114A U151A | ≤ -4.2
124 | U31G C57U G83C C87A | ≤ -4.2
125 | C32U C36A U55G C93G G133U G141U | -4.01
126 | C32U A60G A142G | -3.31
127 | U31G A37U A49C C93A A106G G117C U145C U148A | ≤ -4.2
128 | U33G A52C G92C U139C | ≤ -4.2
129 | C32U C93A | -4.11
130 | U31G C35A G42A | ≤ -4.2
131 | U33A G50C A52C C87A C96U C105U U127G U144A | ≤ -4.2
132 | U33C C63U C99U A142G | ≤ -4.2
133 | C32G U55A | -3.78
134 | U31G G50A | -1.51
135 | U33A C43G G50U G84A A89U | ≤ -4.2
136 | C32U A39G A40C C54A G94U A142U | ≤ -4.2
137 | C32G U146A | -3.88
138 | C32U U33G C38U C54U U77A A107U | -3.74
139 | C32G U45C | -4.16
140 | U33G G48A G59A G84A G88A C149U | ≤ -4.2
141 | C32U C63U A91U C96U A113U G124C | ≤ -4.2
142 | C32A U61G U82A G92U C99G | ≤ -4.2
143 | C32A A41C A66C C95U C99G G117U A150C | ≤ -4.2
144 | C32G A91C U139G | ≤ -4.2

Row | Variant | polymerase ribozyme fitness (log ratio)
145 | C32A G83A G88C C116G G140C | -4.04
146 | U33A U53A U148C | ≤ -4.2
147 | U33G G50A A52C C76U C79U A107G U151A | ≤ -4.2
148 | U33G G58U A91C G143U | -3.87
149 | U33G G80C G92A C131A U151A | -4.15
150 | U31G U55A A142U | -1.54
151 | C32G C38G C93G G133U | -3.72
152 | U33G C35A A66G C93U U104G C105U U134G | ≤ -4.2
153 | U33A A41C U53C C57U G65A A66C G67C G80C | ≤ -4.2
154 | C32U C54U | -1.22
155 | C32U A37C G68A G80A C87U C95G | ≤ -4.2
156 | C32G G92A U111G | -4.13
157 | C32G A47C G74C C116U C132A A138U | ≤ -4.2
158 | U33G C87A A142U | ≤ -4.2
159 | U33A A41C C87A U130G A147G | ≤ -4.2
160 | U33G G34U | ≤ -4.2
161 | C32G C99U | ≤ -4.2
162 | U33A G50C G81A C93G C96U A98G C103G G152U | ≤ -4.2
163 | U33C C43U G126U | ≤ -4.2
164 | C32A U33G A66G G83A U102G C118G G124C G141C G143U | ≤ -4.2
165 | U31G G83U G126C | -0.857
166 | U33C C35G C36G G50C G94U | ≤ -4.2
167 | U33A A39G U90A U130A | ≤ -4.2
